Measured values: publication PMC3035870 (Molecular microbiology, 2009)
Positions count from the first letter of the chain named. Names and notes keep the numbering of the source. Read-outs that look alike come from different tables or passages of the source.

B1: Bacillus subtilis τ subunit of the clamp-loader (DnaX) (natural protein, B. subtilis (strain 168), UniProt P09122 1-563, looked up)
chain: MSYQALYRVFRPQRFEDVVGQEHITKTLQNALLQKKFSHAYLFSGPRGTGKTSAAKIFAKAVNCEHAPVDEPCNECAACKGITNGSISDVIEIDAASNNGVDEIRDIRDKVKFAPSAVTYKVYIIDEVHMLSIGAFNALLKTLEEPPEHCIFILATTEPHKIPLTIISRCQRFDFKRITSQAIVGRMNKIVDAEQLQVEEGSLEIIASAADGGMRDALSLLDQAISFSGDILKVEDALLITGAVSQLYIGKLAKSLHDKNVSDALETLNELLQQGKDPAKLIEDMIFYFRDMLLYKTAPGLEGVLEKVKVDETFRELSEQIPAQALYEMIDILNKSHQEMKWTNHPRIFFEVAVVKICQTSHQSAADLPEVDMLMKKIQQLEQEVERLKTTGIKAAAESPKKEAPRVPKGGKSNYKAPVGRIHEILKEATRPDLDLLRNSWGKLLAHLKQQNKVSHAALLNDSEPVAAGSAAFVLKFKYEIHCKMVAEDNNGVRTNLEQILESMLGKRMDLIGVPEAQWGKIREEFLEDHQQENEGSNEPAEEDPLIAEAKKLVGADLIEIKD
B2: Bacillus subtilis τ A550V mutant (natural protein, B. subtilis (strain 168), UniProt P09122 1-563, looked up)
chain: B1 chain with A550V
B3: Geobacillus stearothermophilus replicative helicase DnaB (enzyme, G. stearothermophilus (strain NCA1503), UniProt Q9X4C9 1-454, looked up)
chain: MSELFSERIPPQSIEAEQAVLGAVFLDPAALVPASEILIPEDFYRAAHQKIFHAMLRVADRGEPVDLVTVTAELAASEQLEEIGGVSYLSELADAVPTAANVEYYARIVEEKSVLRRLIRTATSIAQDGYTREDEIDVLLDEADRKIMEVSQRKHSGAFKNIKDILVQTYDNIEMLHNRDGEITGIPTGFTELDRMTSGFQRSDLIIVAARPSVGKTAFALNIAQNVATKTNENVAIFSLEMSAQQLVMRMLCAEGNINAQNLRTGKLTPEDWGKLTMAMGSLSNAGIYIDDTPSIRVSDIRAKCRRLKQESGLGMIVIDYLQLIQGSGRSKENRQQEVSEISRSLKALARELEVPVIALSQLSRSVEQRQDKRPMMSDIRESGSIEQDADIVAFLYRDDYYNKDSENKNIIEIIIAKQRNGPVGTVQLAFIKEYNKFVNLERRFDEAQIPPGA
B4: Δτ18, B. subtilis τ lacking the last 18 C-terminal residues (domain or fragment, B. subtilis (strain 168), UniProt P09122 1-545, looked up)
chain: MSYQALYRVFRPQRFEDVVGQEHITKTLQNALLQKKFSHAYLFSGPRGTGKTSAAKIFAKAVNCEHAPVDEPCNECAACKGITNGSISDVIEIDAASNNGVDEIRDIRDKVKFAPSAVTYKVYIIDEVHMLSIGAFNALLKTLEEPPEHCIFILATTEPHKIPLTIISRCQRFDFKRITSQAIVGRMNKIVDAEQLQVEEGSLEIIASAADGGMRDALSLLDQAISFSGDILKVEDALLITGAVSQLYIGKLAKSLHDKNVSDALETLNELLQQGKDPAKLIEDMIFYFRDMLLYKTAPGLEGVLEKVKVDETFRELSEQIPAQALYEMIDILNKSHQEMKWTNHPRIFFEVAVVKICQTSHQSAADLPEVDMLMKKIQQLEQEVERLKTTGIKAAAESPKKEAPRVPKGGKSNYKAPVGRIHEILKEATRPDLDLLRNSWGKLLAHLKQQNKVSHAALLNDSEPVAAGSAAFVLKFKYEIHCKMVAEDNNGVRTNLEQILESMLGKRMDLIGVPEAQWGKIREEFLEDHQQENEGSNEPAEEDP

Legend:
Assay in all cases: SEC
SEC [1] = target: the molecule itself
SEC [2] = target: the molecule itself; remark: listed apart in the source
[3] = target: B2
[4] = target: B4

Binder	binding result (SEC [1])	binding result (SEC [2])	binding result [3]	binding result [4]
B1	binds			
B2		binds		
B3	binds		binds	binds
B4	binds			
